Data on one protein can be found in PMC5712780, “Ymr210wp leads to the accumulation of phospholipids and steryl esters in yeast” (Bioinformation, 2017).

What all share (assay): p-nitrophenyl ester hydrolysis assay, Michaelis-Menten fit
Common to all, as to type: biochemical, Saccharomyces cerevisiae

Substrate in data set [1]: CCCCCCCCCCCCCCCC(=O)Oc1ccc([N+](=O)[O-])cc1
The conditions noted are these: optimum pH 8.5 and 45°C (kinetic conditions not stated); pH 8.5; 45.0 °C. The source says: (§1) p-nitrophenyl ester hydrolysis assay, Michaelis-Menten fit on Ymr210wp

Substrate in data set [2]: CCCC(=O)Oc1ccc([N+](=O)[O-])cc1
The following applies: optimum pH 7.5 and 30°C (kinetic conditions not stated); pH 7.5; 30.0 °C.
From the text: as §1

Substrate in data set [3]: CC(=O)Oc1ccc([N+](=O)[O-])cc1
The following applies: optimum pH 7.5 and 30°C (kinetic conditions not stated); text b29 prints error ±2.95; pH 7.5; 30.0 °C.
From the text: as §1

One may read the Km as the substrate concentration at which the rate is half of its maximum.

B1: Ymr210wp (Saccharomyces cerevisiae S288C) (protein)
chain: MRLKELLPNFLIVHQEVPEDPIAFKSTDKRENENKEITIPELIDTKVPELADGATDTLYGLLVNGHLQTAYGSFRHFDNIYKVQYKRMIIKYPHGGEGTVDFAVNGRSTKRRKVEKEYVPTSQPVFNGNLKRRYSYYSPDDPKLNSDDAKPMLIILHGLTGGSRESYVRAIVHEITTKYDFEACVFNARGCCYSAITTPLLYNGGWTNDIRYCVNDLRKRFPNRKFYMMGFSLGASIMTNYLGEESDRTKIECAISVSNPFDLYNSAYFINSTPMGSRFYSPALGHNLLRMVRNHLSTLEENPDFKDVIEKHLKKIRTVRQFDNLLTGPMFGYKNAEEYYKNASSYKRIPGIRTPFIALHAQDDPIVGGDLPIDQIKSNPYTLLLETSTGGHVGWFKDRSGRRWYAEPLCRFLKIFHDEITVKGLKPDLENVQLPDPNCEPIATTFRAN
notes: YMR210w cloned in pYES2/CT, His-tagged, expressed in S. cerevisiae BY4741, Ni-NTA purified
Regarding B1, the Km in data set [1] was found to be 13.19 ± 1.03 mM; in data set [2], 7.28 ± 1.61 mM; in data set [3], 11.51 ± 1.09 mM.
